We go through 36 variants from the Human Domainome abundance scans (Beltran et al. 2025).

The labels stand for the following.
B1: Steroid hormone receptor ERR2, residues 100 to 176; numbered along this chain, O95718 (parent)
chain: KRLCLVCGDIASGYHYGVASCEACKAFFKRTIQGNIEYSCPATNECEITKRRRKSCQACRFMKCLKVGMLKEGVRLD

± gives the uncertainty stated by the source.

Variants of B1 are the subject of this series. The series can be described thus: abundance fitness (aPCA) (normalised: wild type 0, dead -1); higher = more abundant; growth selection in yeast, the domain comes from the species named. As to conditions: Homo sapiens.
For KRLCLVCGDIASGYHYGVASCEACKAFFKRTIQGNDEYSCPATNECEITKRRRKSCQACRFMKCLKVGMLKEGVRLD [I36D], the abundance fitness was -0.062 ± 0.077.

For the variant KRLCLVCGDIASGYHYGVASCEACKAFFKRTIQENIEYSCPATNECEITKRRRKSCQACRFMKCLKVGMLKEGVRLD [G34E], the abundance fitness was determined as 0.157 ± 0.051.

On to KRLCLVCGDIASGYHYGVASCEACKAFFKRTIQMNIEYSCPATNECEITKRRRKSCQACRFMKCLKVGMLKEGVRLD [G34M], for which the abundance fitness is -0.041 ± 0.062.

On to KRLCLVCGDIASGYHYGVASCEACKAFFKRTIQDNIEYSCPATNECEITKRRRKSCQACRFMKCLKVGMLKEGVRLD [G34D], for which the abundance fitness was found to be 0.116 ± 0.092.

On to KRLCLVCGDIASGYHYGVASCEACKAFFKRTIQINIEYSCPATNECEITKRRRKSCQACRFMKCLKVGMLKEGVRLD [G34I], for which the abundance fitness is -0.336 ± 0.2.

Take KRLCLVCGDIASGYHYGVASCEACKAFFKRTIQQNIEYSCPATNECEITKRRRKSCQACRFMKCLKVGMLKEGVRLD [G34Q]: the abundance fitness is 0.254 ± 0.057.

Take KRLCLVCGDIASGYHYGVASCEACKAFFKRTIQTNIEYSCPATNECEITKRRRKSCQACRFMKCLKVGMLKEGVRLD [G34T]: the abundance fitness is -0.088 ± 0.063.

In the case of KRLCLVCGDIASGYHYGVASCEACKAFFKRTIQCNIEYSCPATNECEITKRRRKSCQACRFMKCLKVGMLKEGVRLD [G34C], the abundance fitness was -0.227 ± 0.078.

KRLCLVCGDIASGYHYGVASCEACKAFFKRTIQWNIEYSCPATNECEITKRRRKSCQACRFMKCLKVGMLKEGVRLD [G34W]: the abundance fitness is -0.08 ± 0.048.

In the case of KRLCLVCGDIASGYHYGVASCEACKAFFKRTIQPNIEYSCPATNECEITKRRRKSCQACRFMKCLKVGMLKEGVRLD [G34P], the abundance fitness is -0.904 ± 0.18.

As for KRLCLVCGDIASGYHYGVASCEACKAFFKRTIQNNIEYSCPATNECEITKRRRKSCQACRFMKCLKVGMLKEGVRLD [G34N], the abundance fitness was -0.058 ± 0.15.

KRLCLVCGDIASGYHYGVASCEACKAFFKRTIQYNIEYSCPATNECEITKRRRKSCQACRFMKCLKVGMLKEGVRLD [G34Y]: the abundance fitness was found to be 0.075 ± 0.1.

As for KRLCLVCGDIASGYHYGVASCEACKAFFKRTIQHNIEYSCPATNECEITKRRRKSCQACRFMKCLKVGMLKEGVRLD [G34H], the abundance fitness is -0.282 ± 0.12.

Regarding KRLCLVCGDIASGYHYGVASCEACKAFFKRTIQFNIEYSCPATNECEITKRRRKSCQACRFMKCLKVGMLKEGVRLD [G34F], the abundance fitness came out at 0.144 ± 0.072.

Turning to KRLCLVCGDIASGYHYGVASCEACKAFFKRTIQRNIEYSCPATNECEITKRRRKSCQACRFMKCLKVGMLKEGVRLD [G34R], the abundance fitness is -0.033 ± 0.037.

Turning to KRLCLVCGDIASGYHYGVASCEACKAFFKRTIQVNIEYSCPATNECEITKRRRKSCQACRFMKCLKVGMLKEGVRLD [G34V], the abundance fitness was -0.186 ± 0.046.

In the case of KRLCLVCGDIASGYHYGVASCEACKAFFKRTIQGNIECSCPATNECEITKRRRKSCQACRFMKCLKVGMLKEGVRLD [Y38C], the abundance fitness was -0.293 ± 0.1.

Consider KRLCLVCGDIASGYHYGVASCEACKAFFKRTIQGNIEDSCPATNECEITKRRRKSCQACRFMKCLKVGMLKEGVRLD [Y38D], for which the abundance fitness was -0.979 ± 0.37.

With KRLCLVCGDIASGYHYGVASCEACKAFFKRTIQGNIEESCPATNECEITKRRRKSCQACRFMKCLKVGMLKEGVRLD [Y38E], the abundance fitness was -0.586 ± 0.11.

As to KRLCLVCGDIASGYHYGVASCEACKAFFKRTIQGNIEASCPATNECEITKRRRKSCQACRFMKCLKVGMLKEGVRLD [Y38A], the abundance fitness was -0.554 ± 0.085.

As for KRLCLVCGDIASGYHYGVASCEACKAFFKRTIQGNIHYSCPATNECEITKRRRKSCQACRFMKCLKVGMLKEGVRLD [E37H], the abundance fitness is -0.19 ± 0.14.

For KRLCLVCGDIASGYHYGVASCEACKAFFKRTIQGNIRYSCPATNECEITKRRRKSCQACRFMKCLKVGMLKEGVRLD [E37R], the abundance fitness was -0.371 ± 0.053.

KRLCLVCGDIASGYHYGVASCEACKAFFKRTIQGNINYSCPATNECEITKRRRKSCQACRFMKCLKVGMLKEGVRLD [E37N]: the abundance fitness is -0.575 ± 0.21.

Consider KRLCLVCGDIASGYHYGVASCEACKAFFKRTIQGNIPYSCPATNECEITKRRRKSCQACRFMKCLKVGMLKEGVRLD [E37P], for which the abundance fitness is -0.507 ± 0.14.

As to KRLCLVCGDIASGYHYGVASCEACKAFFKRTIQGNIWYSCPATNECEITKRRRKSCQACRFMKCLKVGMLKEGVRLD [E37W], the abundance fitness was -0.543 ± 0.079.

Take KRLCLVCGDIASGYHYGVASCEACKAFFKRTIQGNIDYSCPATNECEITKRRRKSCQACRFMKCLKVGMLKEGVRLD [E37D]: the abundance fitness was -0.423 ± 0.12.

Turning to KRLCLVCGDIASGYHYGVASCEACKAFFKRTIQGNIMYSCPATNECEITKRRRKSCQACRFMKCLKVGMLKEGVRLD [E37M], the abundance fitness is -0.654 ± 0.14.

In the case of KRLCLVCGDIASGYHYGVASCEACKAFFKRTIQGNILYSCPATNECEITKRRRKSCQACRFMKCLKVGMLKEGVRLD [E37L], the abundance fitness is -0.657 ± 0.09.

Take KRLCLVCGDIASGYHYGVASCEACKAFFKRTIQGNIIYSCPATNECEITKRRRKSCQACRFMKCLKVGMLKEGVRLD [E37I]: the abundance fitness is -0.341 ± 0.18.

As to KRLCLVCGDIASGYHYGVASCEACKAFFKRTIQGNIYYSCPATNECEITKRRRKSCQACRFMKCLKVGMLKEGVRLD [E37Y], the abundance fitness was -0.745 ± 0.26.

For the variant KRLCLVCGDIASGYHYGVASCEACKAFFKRTIQGNITYSCPATNECEITKRRRKSCQACRFMKCLKVGMLKEGVRLD [E37T], the abundance fitness was -0.796 ± 0.21.

As to KRLCLVCGDIASGYHYGVASCEACKAFFKRTIQGNIKYSCPATNECEITKRRRKSCQACRFMKCLKVGMLKEGVRLD [E37K], the abundance fitness is -0.532 ± 0.13.

Consider KRLCLVCGDIASGYHYGVASCEACKAFFKRTIQGNIFYSCPATNECEITKRRRKSCQACRFMKCLKVGMLKEGVRLD [E37F], for which the abundance fitness was -0.851 ± 0.42.

Take KRLCLVCGDIASGYHYGVASCEACKAFFKRTIQGNICYSCPATNECEITKRRRKSCQACRFMKCLKVGMLKEGVRLD [E37C]: the abundance fitness was -0.158 ± 0.1.

For KRLCLVCGDIASGYHYGVASCEACKAFFKRTIQGNIQYSCPATNECEITKRRRKSCQACRFMKCLKVGMLKEGVRLD [E37Q], the abundance fitness is -0.41 ± 0.1.

For KRLCLVCGDIASGYHYGVASCEACKAFFKRTIQGNIGYSCPATNECEITKRRRKSCQACRFMKCLKVGMLKEGVRLD [E37G], the abundance fitness was -0.122 ± 0.041.
